From patent US20190365916A1 (Bayer, published 2019)

Each binder was assayed against T1, surface receptor CD123 (IL3RA) (human, UniProt P26951 19-378) (assay: cell-based or functional assay).
T1 sequence (P26951 19-378 limits assumed): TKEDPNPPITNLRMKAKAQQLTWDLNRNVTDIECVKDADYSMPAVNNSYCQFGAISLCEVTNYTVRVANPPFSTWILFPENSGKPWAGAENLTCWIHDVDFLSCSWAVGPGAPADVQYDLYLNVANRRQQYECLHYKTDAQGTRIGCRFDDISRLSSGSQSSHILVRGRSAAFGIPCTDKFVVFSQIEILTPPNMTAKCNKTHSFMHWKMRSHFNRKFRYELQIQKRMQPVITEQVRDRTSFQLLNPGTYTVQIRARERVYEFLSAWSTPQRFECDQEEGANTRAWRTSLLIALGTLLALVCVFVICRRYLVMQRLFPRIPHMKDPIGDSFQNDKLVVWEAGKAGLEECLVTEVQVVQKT

Row | Binder | IC50 [M] of growth inhibition, MTT assay, MOLM-13 cells (CD123-positive) | IC50 [M] of growth inhibition, MTT assay, MV-4-11 cells (CD123-positive)
1 | ADC Example 1c-8988 (anti-CD123 TPP-8988 coupled with Intermediate F325) (antibody, human IgG1, kappa, V domains shown, KSP inhibitor toxophore-linker of formula (I) (from Intermediate F325) on sulfur atoms of cysteine side chains of the partially reduced antibody; DAR 3.5; positions not given) VH: EVQLLESGGGLVQPGGSLRLSCAVSDYSITSGYYWNWIRQAPGKKLEWMGYISYDGSNNYNPSLKNGRITISRDTSKNTFYLQMNSLRAEDTAVYYCARGEGFYFDSWGQGTLVTVSS VL: EIVLTQSPGTLSLSPGERATLSCKSSQSLFFGSTQKNYLAWYQQKPGQAPRLLIYWASTRESGIPDRFSGSGSGTDFTLTISRLEPEDFAVYYCQQYYNYPWTFGQGTKLEIKR | 3.02e-11 M | 2.94e-08 M
2 | ADC Example 1c-8987 (anti-CD123 TPP-8987 coupled with Intermediate F325) (antibody, human IgG1, kappa, V domains shown, KSP inhibitor toxophore-linker of formula (I) (from Intermediate F325) on sulfur atoms of cysteine side chains of the partially reduced antibody; DAR 3.7; positions not given) VH: QVQLVQSGAEVKKPGSSVKVSCKASGGTFSDYYMKWVRQAPGQGLEWMGDIIPSNGATFYNQKFKGQVTITADESTSTAYMELSSLRSEDTAVYYCARSHLLRASWFAYWGQGTLVTVSS VL: DIVMTQSPDSLAVSLGERATINCESSQSVLNSGNQKNYLTWYQQKPGQPPKLLIYWASTRESGVPDRFSGSGSGTDFTLTISSLQAEDVAVYYCQNDYSYPYTFGQGTKLEIKR | 2.1e-10 M | 1.26e-09 M
3 | ADC Example 1c-9476 (anti-CD123 TPP-9476 coupled with Intermediate F325) (antibody, human IgG1, kappa, V domains shown, KSP inhibitor toxophore-linker of formula (I) (from Intermediate F325) on sulfur atoms of cysteine side chains of the partially reduced antibody; DAR 3.1; positions not given) VH: QVQLVQSGAEVKKPGSSVKVSCKASGGTFSDYYMKWVRQAPGQGLEWMGDIIPSNGATFYNQKFKGRVTITADESTSTAYMELSSLRSEDTAVYYCARSHLLRASWFAYWGQGTLVTVSS VL: DIVMTQSPDSLAVSLGERATINCESSQSVLNSGNQKNYLTWYQQKPGQPPKLLIYWASTRESGVPDRFSGSGSGTDFTLTISSLQAEDVAVYYCQNDYSYPYTFGQGTKLEIKR | 2.85e-10 M | 2.78e-09 M

The binders below were run against T2, receptor protein CXCR5 (CD185) (human, UniProt P32302 1-372) (assay: cell-based or functional assay).
T2 sequence: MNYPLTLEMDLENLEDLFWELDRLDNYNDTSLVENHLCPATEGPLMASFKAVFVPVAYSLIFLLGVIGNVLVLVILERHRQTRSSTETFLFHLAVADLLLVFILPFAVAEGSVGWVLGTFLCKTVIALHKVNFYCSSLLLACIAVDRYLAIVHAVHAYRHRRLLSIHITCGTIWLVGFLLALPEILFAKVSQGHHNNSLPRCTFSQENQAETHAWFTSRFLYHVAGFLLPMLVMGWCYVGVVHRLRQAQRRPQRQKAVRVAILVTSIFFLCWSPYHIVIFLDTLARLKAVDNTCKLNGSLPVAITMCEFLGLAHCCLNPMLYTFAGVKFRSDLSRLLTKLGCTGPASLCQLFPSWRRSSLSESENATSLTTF

Row | Binder | IC50 [M] of growth inhibition, MTT assay, Rec-1 cells (CXCR5-positive)
4 | ADC Example 1x-9024 (anti-CXCR5 TPP-9024 coupled with Intermediate F325) (antibody, human IgG1, kappa, V domains shown, KSP inhibitor toxophore-linker of formula (I) (from Intermediate F325) on sulfur atoms of cysteine side chains of the partially reduced antibody; DAR 3.8; positions not given) VH: EVQLVESGGGLVQPGKSLKLSCSASGFTFSTSGMHWFRQAPGKGLDWVAYISSSSGFVYADAVKGRFTISRDNAQNTLYLQLNSLKSEDTAIYYCARSEAAFWGQGTLVTVSS VL: DIVLTQAPRSVSVTPGESASISCRSNKSRLSRMGITPLNWYLQKPGKSPQLLIYRMSNLASGVPDRFSGSGSETDFTLKISKVETEDVGVYYCAQFLEYPPTFGSGTKLEIKR | 1.34e-10 M
5 | ADC Example 1x-9580 (anti-CXCR5 TPP-9580 coupled with Intermediate F325) (antibody, human IgG1, kappa, V domains shown, KSP inhibitor toxophore-linker of formula (I) (from Intermediate F325) on sulfur atoms of cysteine side chains of the partially reduced antibody; DAR 4.2; positions not given) VH: not shown VL: DIVMTQSPLSLPVTPGEPASISCRSQKSRLSRMGITPLNWYLQKPGQSPQLLIYRMSNLASGVPDRFSGSGSGTDFTLKISRVEAEDVGVYYCAQFLEYPPTFGQGTKLEIKR | 2.78e-09 M
6 | ADC Example 1x-9574 (anti-CXCR5 TPP-9574 coupled with Intermediate F325) (antibody, human IgG1, kappa, V domains shown, KSP inhibitor toxophore-linker of formula (I) (from Intermediate F325) on sulfur atoms of cysteine side chains of the partially reduced antibody; DAR 4.1; positions not given) VH: not shown VL: DIVMTQSPLSLPVTPGEPASISCRSQKSRLSRMGITPLNWYLQKPGQSPQLLIYRMSNLASGVPDRFSGSGSGTDFTLKISRVEAEDVGVYYCAQFLEYPPTFGQGTKLEIKR | 2.94e-11 M

Molecular target: T1, surface receptor CD123 (IL3RA)
Assay: cell-based or functional assay
Remark: another data set of the same source

Row | Binder | IC50 [M] of growth inhibition, MTT assay, MOLM-13 cells (CD123-positive) | IC50 [M] of growth inhibition, MTT assay, MV-4-11 cells (CD123-positive)
7 | reference ADC R1c-8988 (anti-CD123 TPP-8988 coupled with Intermediate F104) (antibody, human IgG1, kappa, V domains shown, reference KSP inhibitor toxophore-linker (from Intermediate F104) on sulfur atoms of cysteine side chains of the partially reduced antibody; DAR 3.4; positions not given) VH: EVQLLESGGGLVQPGGSLRLSCAVSDYSITSGYYWNWIRQAPGKKLEWMGYISYDGSNNYNPSLKNGRITISRDTSKNTFYLQMNSLRAEDTAVYYCARGEGFYFDSWGQGTLVTVSS VL: EIVLTQSPGTLSLSPGERATLSCKSSQSLFFGSTQKNYLAWYQQKPGQAPRLLIYWASTRESGIPDRFSGSGSGTDFTLTISRLEPEDFAVYYCQQYYNYPWTFGQGTKLEIKR | 4.26e-09 M | 3.27e-08 M
8 | reference ADC R1c-8987 (anti-CD123 TPP-8987 coupled with Intermediate F104) (antibody, human IgG1, kappa, V domains shown, reference KSP inhibitor toxophore-linker (from Intermediate F104) on sulfur atoms of cysteine side chains of the partially reduced antibody; DAR 1.5; positions not given) VH: QVQLVQSGAEVKKPGSSVKVSCKASGGTFSDYYMKWVRQAPGQGLEWMGDIIPSNGATFYNQKFKGQVTITADESTSTAYMELSSLRSEDTAVYYCARSHLLRASWFAYWGQGTLVTVSS VL: DIVMTQSPDSLAVSLGERATINCESSQSVLNSGNQKNYLTWYQQKPGQPPKLLIYWASTRESGVPDRFSGSGSGTDFTLTISSLQAEDVAVYYCQNDYSYPYTFGQGTKLEIKR | 7.57e-08 M | 1.33e-07 M
9 | reference ADC R1c-9476 (anti-CD123 TPP-9476 coupled with Intermediate F104) (antibody, human IgG1, kappa, V domains shown, reference KSP inhibitor toxophore-linker (from Intermediate F104) on sulfur atoms of cysteine side chains of the partially reduced antibody; DAR 3.1; positions not given) VH: QVQLVQSGAEVKKPGSSVKVSCKASGGTFSDYYMKWVRQAPGQGLEWMGDIIPSNGATFYNQKFKGRVTITADESTSTAYMELSSLRSEDTAVYYCARSHLLRASWFAYWGQGTLVTVSS VL: DIVMTQSPDSLAVSLGERATINCESSQSVLNSGNQKNYLTWYQQKPGQPPKLLIYWASTRESGVPDRFSGSGSGTDFTLTISSLQAEDVAVYYCQNDYSYPYTFGQGTKLEIKR | 3.04e-10 M | 5.3e-09 M

Molecular target: T2, receptor protein CXCR5 (CD185)
Assay: cell-based or functional assay
Remark: another data set of the same source

Row | Binder | IC50 [M] of growth inhibition, MTT assay, Rec-1 cells (CXCR5-positive)
10 | reference ADC R1x-9024 (anti-CXCR5 TPP-9024 coupled with Intermediate F104) (antibody, human IgG1, kappa, V domains shown, reference KSP inhibitor toxophore-linker (from Intermediate F104) on sulfur atoms of cysteine side chains of the partially reduced antibody; DAR 3.7; positions not given) VH: EVQLVESGGGLVQPGKSLKLSCSASGFTFSTSGMHWFRQAPGKGLDWVAYISSSSGFVYADAVKGRFTISRDNAQNTLYLQLNSLKSEDTAIYYCARSEAAFWGQGTLVTVSS VL: DIVLTQAPRSVSVTPGESASISCRSNKSRLSRMGITPLNWYLQKPGKSPQLLIYRMSNLASGVPDRFSGSGSETDFTLKISKVETEDVGVYYCAQFLEYPPTFGSGTKLEIKR | 1.84e-10 M
11 | reference ADC R1x-9574 (anti-CXCR5 TPP-9574 coupled with Intermediate F104) (antibody, human IgG1, kappa, V domains shown, reference KSP inhibitor toxophore-linker (from Intermediate F104) on sulfur atoms of cysteine side chains of the partially reduced antibody; DAR 3.9; positions not given) VH: not shown VL: DIVMTQSPLSLPVTPGEPASISCRSQKSRLSRMGITPLNWYLQKPGQSPQLLIYRMSNLASGVPDRFSGSGSGTDFTLKISRVEAEDVGVYYCAQFLEYPPTFGQGTKLEIKR | 2.62e-10 M
12 | reference ADC R1x-9580 (anti-CXCR5 TPP-9580 coupled with Intermediate F104) (antibody, human IgG1, kappa, V domains shown, reference KSP inhibitor toxophore-linker (from Intermediate F104) on sulfur atoms of cysteine side chains of the partially reduced antibody; DAR 3.7; positions not given) VH: not shown VL: DIVMTQSPLSLPVTPGEPASISCRSQKSRLSRMGITPLNWYLQKPGQSPQLLIYRMSNLASGVPDRFSGSGSGTDFTLKISRVEAEDVGVYYCAQFLEYPPTFGQGTKLEIKR | 7.16e-11 M

These binders were tested against T1, surface receptor CD123 (IL3RA) (assay: cell binding assay, CypHer 5E-labelled against unlabelled antibody).

Row | Binder | binding result
13 | anti-CD123 antibody TPP-8988 (antibody, human IgG1, kappa, V domains shown, Humanized anti-CD123 IgG; In the internalization assays it carried CypHer 5E dye on lysines) VH: EVQLLESGGGLVQPGGSLRLSCAVSDYSITSGYYWNWIRQAPGKKLEWMGYISYDGSNNYNPSLKNGRITISRDTSKNTFYLQMNSLRAEDTAVYYCARGEGFYFDSWGQGTLVTVSS VL: EIVLTQSPGTLSLSPGERATLSCKSSQSLFFGSTQKNYLAWYQQKPGQAPRLLIYWASTRESGIPDRFSGSGSGTDFTLTISRLEPEDFAVYYCQQYYNYPWTFGQGTKLEIKR | binds
14 | anti-CD123 antibody TPP-8987 (antibody, human IgG1, kappa, V domains shown, Humanized anti-CD123 IgG; In the internalization assays it carried CypHer 5E dye on lysines) VH: QVQLVQSGAEVKKPGSSVKVSCKASGGTFSDYYMKWVRQAPGQGLEWMGDIIPSNGATFYNQKFKGQVTITADESTSTAYMELSSLRSEDTAVYYCARSHLLRASWFAYWGQGTLVTVSS VL: DIVMTQSPDSLAVSLGERATINCESSQSVLNSGNQKNYLTWYQQKPGQPPKLLIYWASTRESGVPDRFSGSGSGTDFTLTISSLQAEDVAVYYCQNDYSYPYTFGQGTKLEIKR | binds
15 | anti-CD123 antibody TPP-9476 (antibody, human IgG1, kappa, V domains shown, Humanized anti-CD123 IgG; In the internalization assays it carried CypHer 5E dye on lysines) VH: QVQLVQSGAEVKKPGSSVKVSCKASGGTFSDYYMKWVRQAPGQGLEWMGDIIPSNGATFYNQKFKGRVTITADESTSTAYMELSSLRSEDTAVYYCARSHLLRASWFAYWGQGTLVTVSS VL: DIVMTQSPDSLAVSLGERATINCESSQSVLNSGNQKNYLTWYQQKPGQPPKLLIYWASTRESGVPDRFSGSGSGTDFTLTISSLQAEDVAVYYCQNDYSYPYTFGQGTKLEIKR | binds

These binders were tested against T2, receptor protein CXCR5 (CD185) in the same assay as above.

Row | Binder | binding result
16 | anti-CXCR5 antibody TPP-9024 (antibody, human IgG1, kappa, V domains shown, In the internalization assays it carried CypHer 5E dye on lysines) VH: EVQLVESGGGLVQPGKSLKLSCSASGFTFSTSGMHWFRQAPGKGLDWVAYISSSSGFVYADAVKGRFTISRDNAQNTLYLQLNSLKSEDTAIYYCARSEAAFWGQGTLVTVSS VL: DIVLTQAPRSVSVTPGESASISCRSNKSRLSRMGITPLNWYLQKPGKSPQLLIYRMSNLASGVPDRFSGSGSETDFTLKISKVETEDVGVYYCAQFLEYPPTFGSGTKLEIKR | binds
17 | anti-CXCR5 antibody TPP-9574 (antibody, human IgG1, kappa, V domains shown, Humanized anti-CXCR5 IgG; In the internalization assays it carried CypHer 5E dye on lysines) VH: not shown VL: DIVMTQSPLSLPVTPGEPASISCRSQKSRLSRMGITPLNWYLQKPGQSPQLLIYRMSNLASGVPDRFSGSGSGTDFTLKISRVEAEDVGVYYCAQFLEYPPTFGQGTKLEIKR | binds
18 | anti-CXCR5 antibody TPP-9580 (antibody, human IgG1, kappa, V domains shown, Humanized anti-CXCR5 IgG; In the internalization assays it carried CypHer 5E dye on lysines) VH: not shown VL: DIVMTQSPLSLPVTPGEPASISCRSQKSRLSRMGITPLNWYLQKPGQSPQLLIYRMSNLASGVPDRFSGSGSGTDFTLKISRVEAEDVGVYYCAQFLEYPPTFGQGTKLEIKR | binds
